Patent US11202837B2, “Biological materials and uses thereof” (Antikor Biopharma Limited, priority 2014, dated 2021)
Values joined by “and” are separate entries in the source; they are usually repeats but may differ in a detail not shown here. Equal entries are not always repeated.

Assays:
[1] = Plasma pharmacokinetics in Sprague-Dawley rats (ELISA); format: in vivo, rat; details: for Bioavailability (blood exposure, AUC, 24 hrs): mean AUC in anti-payload and anti-protein detection; for Elimination half-life (hrs) Total Antibody: plasma ELISA
Method: Rats. Male Sprague-Dawley rats (sourced from Charles River, UK) were group housed in a temperature and light controlled facility on a 12 hour light/dark cycle with food and water available ad libitum. Rats selected for study inclusion were individually housed until completion of the study. All animals were subjected to health monitoring in accordance with the guidelines by the onsite home office registered veterinarian. All animal experimentation was covered under the UK Animals (Scientific Procedures) Act (1986) and EU directive 86/609/EEC. All such work was monitored by regular inspections of procedures and facilities by the on-site Veterinarian and UK Home Office inspectors. The study design required the surgical implantation of catheters into the jugular of male Sprague-Dawley rats.
Rats were anaesthetised using the inhalation anaesthetic isoflurane and placed in dorsal recumbency. The right jugular vein was exposed and a loose ligature was placed caudally and the cranial end of vein was ligated. A small incision was made between the ligatures into which the catheter (polyethylene 50 tubing) was inserted. The catheter was secured in place by tying the loose ligature around the catheterised vessel. A small incision was made in the scapular region to serve as the exit site of the catheter. The catheter was subcutaneously tunneled and exteriorised through the scapular incision. Patency of the catheter was tested, and the catheter was filled with a locking solution (heparinised saline) and sealed with a stainless steel pin. Post-operative monitoring of animals was performed according to Home Office good practice guidelines. Intravenous dosing was via the tail vein.
(§1) Therapeutic (test) Agents. All test agents were supplied as ready-to-dose dosing solutions. All dosing solutions were stored at 4° C. until dosed. All treatments were administered in a dosing volume scaled to the body weights of the individual animals to obtain the dosing concentration described in the treatment tables.
Treatment (rats). On Day 1 of the study, rats were divided into groups of three animals (per test agent being evaluated), and dosing was initiated according to the treatment plan summarized in the tables below
Sampling (rats). Serial venous blood samples (approx. 0.1-0.2 ml) were collected via the exteriorised jugular vein catheter at specified time points (0.5 to 72 hrs post dosing) and placed in heparinised containers. Prior to taking the blood samples the catheter was evacuated of heparinised saline to prevent dilution of the blood sample. Following each blood sample the volume of blood removed is replaced with an equal volume of heparinised saline via the catheter and sealed. Blood samples were centrifuged (5 minutes, 16,100 g, 4° C.) to separate the plasma. Plasma samples were transferred to fresh containers and promptly frozen and stored at −20° C. until used for analysis.
(§2) Quantification of test agents in plasma. An ELISA was carried out as described in Example 31 The detecting antibodies were (a) Anti-T7 tag to detect the scFv (total antibody), (b) Anti-Human Fab-specific to detect trastuzumab (total antibody), (c) Anti-MMAF (Concortis), Anti-MMAE (Concortis), anti-DM1
(§3) (Concortis) and anti-cemadotin (in-house mouse monoclonal antibody, Example 33 that also recognised P5C5 and AuristatinF), total ADC. The reference test agents were used to construct a calibration curve for which the plasma samples were compared to, in order to quantify the amount present. The concentration was plotted against time (average of three animals with standard error) and fitted to a 2-phase decay curve using GraphPad Prism to derive kinetic parameters.

[2] = Body weight and tolerability in BT474 xenograft studies; format: in vivo, mouse; details: BT474 xenograft study
Text: Treatment-Related Side Effects. Test animals were weighed Day 1. Animals were observed frequently for overt signs of any adverse, treatment-related side effects. Individual body weight loss was monitored every other day and any animal whose weight exceeded the limits for acceptable body weight loss was euthanized. Group mean body weight loss also was monitored as per protocol. Acceptable toxicity for the maximum tolerated dose (MTD) was defined as a group mean body weight loss of less than 20% during the test.

[3] = tested on: BT474 human breast carcinoma xenografts; assay: Tumour penetration in BT474 xenografts, immunohistochemistry 2 hrs post dose; format: in vivo, mouse; details: 5 mg/kg single i.v. dose, SCID mice, BT474, payload detection (total ADC)
Method: (§4) Mice. […] The animals were fed ad libitum water (reverse osmosis, 1 ppm Cl), and NIH 31 Modified and Irradiated Lab Diet® consisting of 18.0% crude protein, 5.0% crude fat, and 5.0% crude fiber. The mice were housed on irradiated Enrich-o'cobs™ Laboratory Animal Bedding in static microisolators on a 12-hour light cycle at 20-22° C. (68-72° F.) and 40-60% humidity. Charles River Discovery Services North Carolina (CR Discovery Services, who carried out this contracted R&D) specifically complies with the recommendations of the Guide for Care and Use of Laboratory Animals with respect to restraint, husbandry, surgical procedures, feed and fluid regulation, and veterinary care. The animal care and use program at CR Discovery Services is accredited by the Association for Assessment and Accreditation of Laboratory Animal Care International (AAALAC), which assures compliance with accepted standards for the care and use of laboratory animals.
Therapeutic (test) Agents. […] All dosing solutions were stored at 4° C. until dosed. […] Treatment.

[4] = tested on: BT474 human breast carcinoma xenografts; assay: Tumour growth inhibition or eradication in BT474 xenograft model; format: in vivo
Method: as §4, with “care.” for “care. The animal care and use program at CR Discovery Services is accredited by the Association for Assessment and Accreditation of Laboratory Animal Care International (AAALAC), which assures compliance with accepted standards for the care and use of laboratory animals.”
Tumor weight may be estimated with the assumption that 1 mg is equivalent to 1 mm^3 of tumor volume.

[5] = target: T1, HER2 (Homo sapiens, UniProt P04626); assay: Rat urine analysed on a HER2-Biacore SPR chip; format: in vivo; details: 10-fold concentrated urine, compared to free scFv samples
Method: (A) A single i.v. dose was injected into male Sprague-Dawley rats at 4 mg/kg. Plasma samples were taken at time points indicated and analysed by ELISA using anti-protein detection (total protein, indicated by solid lines, closed symbols) and where relevant anti-drug detection (total ADC, indicated by dashed lines, open symbols). The SE of the mean of each group and experimental triplicates are shown. ADC scFv (TCT1067)-P5C5 (circles) (n=3) and scFv (TCT1067) (squares) (n=3). (B) 10-fold concentrated urine collected over 24 hours analysed on a HER2-Biacore SPR chip for the scFv (TCT1067)-injected rats, 3 animal samples. The scFv reference is shown. The bulk shifts in the urine samples are due to the concentration of urine components. (C) 10-fold concentrated urine collected over 24 hours analysed on a HER2-Biacore SPR chip for the scFv (TCT1067)-P5C5 conjugate-injected rats, 3 animal samples. The scFv (TCT1067)-P5C5 reference is shown. The bulk shifts in the urine samples are due to the concentration of urine components.
The scFv (TCT1067)-P5C5 conjugate were detected in the plasma via its T7 tag (detecting total antibody) and via the payload (detecting total ADC). […] The urine from the treated animals was collected over 24 hours, concentrated 10-fold in a spin concentrator (MWCO-10 kDa) and dialysed against PBS. These samples, from three rats per group, were analysed on a Biacore SPR chip.

[6] = Concentration reached and storage stability of purified conjugates in buffer; format: physicochemical; details: after purification and concentration
[7] = target: T1, HER2; assay: Biacore SPR binding to immobilised HER2; details: immobilised HER2
Method in brief: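 HER2 amine-coupled on CM5 or CM3 chips, Biacore T200. Free antibody (typically 5-0.6 μg/ml) and conjugates (20-2.5 μg/ml) injected 160 s at 30 μl/min, 900 s dissociation (3600 s at highest concentration); regeneration with 8M MgCl2. Kinetics compared with unmodified scFv.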

[8] = Aggregation by HPLC size-exclusion chromatography; format: physicochemical
Method: Aggregation can be tested by analytical size-exclusion HPLC measuring the percentage of high molecular weight material compared to the conjugate eluting at a retention time characteristic of a monomeric conjugate.
Typically, 20 μg of protein was injected for analytical runs and 300 μg for semi-preparative runs.

[9] = Plasma pharmacokinetics in BALB/c mice (ELISA, total antibody and total ADC); format: in vivo, mouse; details: for Bioavailability (blood exposure, AUC, 24 hrs) / Elimination half-life (hrs) Total Antibody: mice; for Bioavailability (blood exposure, AUC, 24 hrs): mean AUC in anti-payload and anti-protein detection; for Elimination half-life (hrs) Total Antibody: plasma ELISA
Method: Mice. Female BALB/c mice (BALB/cAnNCrl, Charles River) were eight weeks old with body weights ranging from 15.9 to 21.9 grams at the beginning of the study. The animals were fed ad libitum water (reverse osmosis, 1 ppm Cl) and NIH 31 Modified and Irradiated Lab Diet® consisting of 18.0% crude protein, 5.0% crude fat, and 5.0% crude fiber. The mice were housed on irradiated Enrich-o'cobs™ Laboratory Animal Bedding in static microisolators on a 12-hour light cycle at 20-22° C. (68-72° F.) and at 40-60% humidity. Charles River Discovery Services North Carolina (CR Discovery Services, who carried out this contracted R&D) specifically complies with the recommendations of the Guide for Care and Use of Laboratory Animals with respect to restraint, husbandry, surgical procedures, feed and fluid regulation, and veterinary care. The Animal Care and Use program at CR Discovery Services is accredited by the Association for Assessment and Accreditation of Laboratory Animal Care International, which assures compliance with accepted standards for the care and use of laboratory animals.
as §1
Treatment (mice). On Day 1 of the study, mice were divided into groups each consisting of eighteen mice (per test agent being evaluated), and dosing was initiated according to the treatment plan summarized in the treatment tables. All doses were administered intravenously (i.v.) by tail vein injection as described in the tables below.
Endpoint. The study endpoint occurred after the last sampling point, typically on Day 2 or 4, twenty-four or seventy-two hours post dose.
Sampling (mice). Blood (full blood volume) was collected from three animals per treatment group per timepoint. Samples were collected from all animals via terminal cardiac puncture under isoflurane anesthesia. Once collected, blood samples were collected into collection tubes containing lithium heparin or K2EDTA as anticoagulants and were processed for plasma at each timepoint. Each plasma sample was stored at −80° C. until used for analysis.
as §2, §3

[10] = target: T1, HER2; details: by mutagenesis, Schier R et al (1996); cited from earlier work
[11] = single i.v. dose 4 mg/kg, male Sprague-Dawley rats

B1: scFv (TCT1067)-P5-C5 (conjugate)
scFv: SGSGGSGQVQLVQSGAEVKKPGESLKISCKGSGYSFTSYWIAWVRQMPGKGLEYMGLIYPGDSDTKYSPSFQGQVTISVDKSVSTAYLQWSSLKPSDSAVYFCARHDVGYCTDRTCAAWPEWLGVWGQGTLVTVSSGGGGSGGGGSGGGGSQSVLTQPPSVSAAPGQKVTISCSGSSSNIGNNYVSWYQQLPGTAPKLLIYGHTNRPAGVPDRFSGSKSGTSASLAISGFRSEDEADYYCASWDYTLSGWVFGGGTKLTVLMASMTGGQQMG
Bioavailability (blood exposure, AUC, 24 hrs) ([1]; rats, 1 × 4 mg/kg, Table 64): 90.1 μghr/ml | Elimination half-life (hrs) Total ADC ([1]; rats, 1 × 4 mg/kg, plasma ELISA anti-payload, Table 64): 2.2085 h | Elimination half-life (hrs) Total Antibody ([1]; rats, 1 × 4 mg/kg, Table 64): 0.512 h | increase in bioavailability (AUC) over unmodified scFv [1, 11]: 4.5 fold | plasma clearance (in words) [1, 11]: clears more slowly than the unmodified fragment | stability in plasma (total antibody vs total ADC clearance lines) ([1]; single i.v. dose 4 mg/kg, rats): stable in plasma | volume of distribution compared to unmodified scFv ([1]; single i.v. dose 4 mg/kg, rats): lower volume of distribution | body weight, heavier than the IgG ADC group of mice [2]: up to 20% | tolerability from body weights (in words) [2]: better tolerated | localisation in tumour sections at 2 hrs post-dosing [3]: localise throughout the tumour | tumour growth delay ([4]; 5 mg/kg dosing regimen): ~20 days | tumour shrinkage compared with the trastuzumab ADC ([4]; scFv ADC dosed more frequently): more effectively | HER2 binding activity in urine collected over 24 hours [5]: comparable binding activity | time stable in the buffer [6]: several months

B2: scFv (TCT1067) (protein)
scFv: SGSGGSGQVQLVQSGAEVKKPGESLKISCKGSGYSFTSYWIAWVRQMPGKGLEYMGLIYPGDSDTKYSPSFQGQVTISVDKSVSTAYLQWSSLKPSDSAVYFCARHDVGYCTDRTCAAWPEWLGVWGQGTLVTVSSGGGGSGGGGSGGGGSQSVLTQPPSVSAAPGQKVTISCSGSSSNIGNNYVSWYQQLPGTAPKLLIYGHTNRPAGVPDRFSGSKSGTSASLAISGFRSEDEADYYCASWDYTLSGWVFGGGTKLTVLMASMTGGQQMG
association rate [7]: 3.9e+06 M⁻¹ s⁻¹ and 3.88e+06 M⁻¹ s⁻¹ | dissociation rate [7]: 3.7e-05 s⁻¹ and 3.69e-05 s⁻¹ | Bioavailability (blood exposure, AUC, 24 hrs) ([1]; rats, 1 × 4 mg/kg, Table 64): 20.46 μghr/ml | Elimination half-life (hrs) Total Antibody ([1]; rats, 1 × 4 mg/kg, Table 64): 0.8 h | plasma clearance (in words) [1, 11]: clears rapidly | % aggregate by HPLC-SEC (FIG. 71) ([8]; scFv conjugation reaction with 5 molar equivalents of Auristatin F-C5 NHS (reactions 1 and 4)): 0% | % aggregate by HPLC-SEC (FIG. 71) ([8]; scFv conjugation reaction with 10 molar equivalents of Auristatin F-C5 NHS (reactions 2 and 5)): 0% | % aggregate by HPLC-SEC (FIG. 71) ([8]; scFv conjugation reaction with 25 molar equivalents of Auristatin F-C5 NHS (reactions 3 and 6)): 0% | Bioavailability (blood exposure, AUC, 24 hrs) ([9]; 1 × 2 mg/kg, Table 61 (AF-C5)): 8.13 μghr/ml | Bioavailability (blood exposure, AUC, 24 hrs) ([9]; 1 × 2 mg/kg, Table 62): 8.13 μghr/ml | Elimination half-life (hrs) Total Antibody ([9]; 1 × 2 mg/kg, Table 61 (AF-C5)): 1.05 h | Elimination half-life (hrs) Total Antibody ([9]; 1 × 2 mg/kg, Table 62): 1.05 h | Bioavailability (blood exposure, AUC, 24 hrs) ([9]; 1 × 5 mg/kg, Table 57): 8.12 μghr/ml | Elimination half-life (hrs) Total Antibody ([9]; 1 × 5 mg/kg, Table 57): 1.05 h | plasma clearance (in words) ([9]; single i.v. dose, female BALB/c mice (5 mg/kg MMAF-C5, P5C5; 2 mg/kg AF-C5, DM1)): clears rapidly | increase of binding affinity over the anti-HER2 scFv of Example 27 [10]: over 1000 fold
